Impairment of migratory response to CCL25 after CCR9 siRNA, melanoma line ML and impairment of migratory response to CCL25 after CCR9 siRNA, melanoma line MP data for 1 substance are collected here from US20120301477A1.

The target in this test is CCR9 (chemokine (C-C motif) receptor 9) (human) (UniProt P51686). In words: cell-based or functional assay.
UniProt P51686, sequence (P51686 whole entry): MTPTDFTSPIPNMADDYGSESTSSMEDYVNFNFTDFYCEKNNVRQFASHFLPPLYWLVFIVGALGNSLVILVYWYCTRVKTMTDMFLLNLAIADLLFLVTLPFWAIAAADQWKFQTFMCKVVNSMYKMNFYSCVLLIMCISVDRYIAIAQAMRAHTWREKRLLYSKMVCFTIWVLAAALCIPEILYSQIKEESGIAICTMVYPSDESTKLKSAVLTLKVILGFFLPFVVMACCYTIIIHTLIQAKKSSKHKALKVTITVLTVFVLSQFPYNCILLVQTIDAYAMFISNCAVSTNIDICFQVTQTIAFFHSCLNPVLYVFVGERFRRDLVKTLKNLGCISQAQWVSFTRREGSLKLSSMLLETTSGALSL

“Human recombinant CCL25 (from UniProt O15444 24-150) (ligand)” had an impairment of migratory response to CCL25 after CCR9 siRNA, melanoma line ML of 76% and an impairment of migratory response to CCL25 after CCR9 siRNA, melanoma line MP of 63%.
